# Measured values reported in US20240117018A1.
# Experiments:
# Experiment in all cases: cell-based or functional assay
# [1] = target: Env of HIV-1 pseudovirus THRO4156.18 (HIV-1)
# [2] = target: Env of HIV-1 pseudovirus Ce703010054_2A2 (HIV-1)
# [3] = target: Env of HIV-1 pseudovirus CNE17 (HIV-1)
# [4] = target: Env of HIV-1 pseudovirus Ce1172_H1 (HIV-1)
# [5] = target: Env of HIV-1 pseudovirus ZM135M.PL10a (HIV-1)
# [6] = target: Env of HIV-1 pseudovirus 1394C9G1(Rev-) (HIV-1)
# [7] = target: Env of HIV-1 pseudovirus ZM249M.PL1 (HIV-1)
# [8] = target: Env of HIV-1 pseudovirus 1006_11_C3_1601 (HIV-1)
# [9] = target: Env of HIV-1 pseudovirus PVO.4 (HIV-1)
# [10] = target: Env of HIV-1 pseudovirus CNE53 (HIV-1)
# [11] = target: Env of HIV-1 pseudovirus TRJO4551.58 (HIV-1)
# [12] = target: Env of HIV-1 pseudovirus CNE19 (HIV-1)
# [13] = target: Env of HIV-1 pseudovirus 1056_10_TA11_1826 (HIV-1)
# [14] = target: Env of HIV-1 pseudovirus CNE30 (HIV-1)
# [15] = target: Env of HIV-1 pseudovirus T250-4 (HIV-1)
# [16] = target: Env of HIV-1 pseudovirus Q842.d12 (HIV-1)
# [17] = target: Env of HIV-1 pseudovirus MS208.A1 (HIV-1)
# [18] = target: HIV-1 Env pseudovirus Du156.12 (HIV-1)
# [19] = target: HIV-1 Env pseudovirus WEAU_d15_410_787 (HIV-1)
# [20] = target: HIV-1 Env pseudovirus Ce703010054_2A2 (HIV-1)
# [21] = target: HIV-1 Env pseudovirus WITO4160.33 (HIV-1)
# [22] = target: HIV-1 Env pseudovirus 6535.3 (HIV-1)
# [23] = target: HIV-1 Env pseudovirus SC422661.8 (HIV-1)
# [24] = target: HIV-1 Env pseudovirus CNE17 (HIV-1)
# [25] = target: HIV-1 Env pseudovirus REJO4541.67 (HIV-1)
# [26] = target: HIV-1 Env pseudovirus CAP45.2.00.G3 (HIV-1)
# [27] = target: HIV-1 Env pseudovirus CAAN5342.A2 (HIV-1)
# [28] = target: HIV-1 Env pseudovirus BJOX015000.11.5 (HIV-1)
# [29] = target: HIV-1 Env pseudovirus A07412M1.vrc12 (HIV-1)
# [30] = target: HIV-1 Env pseudovirus 6041.v3.c23 (HIV-1)
# [31] = target: HIV-1 Env pseudovirus BJOX010000.06.2 (HIV-1)
# [32] = target: HIV-1 Env pseudovirus 620345.c01 (HIV-1)
# [33] = target: HIV-1 Env pseudovirus C2101.c01 (HIV-1)
# [34] = target: HIV-1 Env pseudovirus CNE5 (HIV-1)
# [35] = target: HIV-1 Env pseudovirus T278-50 (HIV-1)
# [36] = target: HIV-1 Env pseudovirus X2088_c9 (HIV-1)
# [37] = target: HIV-1 Env pseudovirus 6540.v4.c1 (HIV-1)
# [38] = target: HIV-1 Env pseudovirus BJOX009000.02.4 (HIV-1)
substance,measurement,setting,value
PG16 (antibody),IC50,[1],6.83 µg/mL
same,IC80,[1],> 50 µg/mL
same,IC50,[2],0.008 µg/mL
same,IC80,[2],0.053 µg/mL
same,IC50,[3],0.029 µg/mL
same,IC80,[3],0.132 µg/mL
same,IC50,[4],0.007 µg/mL
same,IC80,[4],0.037 µg/mL
same,IC50,[5],> 50 µg/mL
same,IC80,[5],> 50 µg/mL
same,IC50,[6],0.008 µg/mL
same,IC80,[6],0.056 µg/mL
same,IC50,[7],0.127 µg/mL
same,IC80,[7],18.1 µg/mL
same,IC50,[8],> 50 µg/mL
same,IC80,[8],> 50 µg/mL
same,IC50,[9],15.3 µg/mL
same,IC80,[9],> 50 µg/mL
same,IC50,[10],> 50 µg/mL
same,IC80,[10],> 50 µg/mL
same,IC50,[11],1.01 µg/mL
same,IC80,[11],24.5 µg/mL
same,IC50,[12],0.024 µg/mL
same,IC80,[12],3.07 µg/mL
same,IC50,[13],0.315 µg/mL
same,IC80,[13],1.95 µg/mL
same,IC50,[14],> 50 µg/mL
same,IC80,[14],> 50 µg/mL
same,IC50,[15],0.002 µg/mL
same,IC80,[15],0.005 µg/mL
same,IC50,[16],0.032 µg/mL
same,IC80,[16],> 0.25 µg/mL
same,IC50,[17],0.002 µg/mL
same,IC80,[17],0.004 µg/mL
N49P11 (antibody),IC50,[18],2.4 µg/mL
same,IC80,[18],12 µg/mL
same,MPI,[18],100
same,IC50,[19],1.7 µg/mL
same,IC80,[19],6.02 µg/mL
same,MPI,[19],100
same,IC50,[20],1.42 µg/mL
same,IC80,[20],7.51 µg/mL
same,MPI,[20],100
same,IC50,[21],4.86 µg/mL
same,IC80,[21],13.2 µg/mL
same,MPI,[21],100
same,IC50,[22],8.22 µg/mL
same,IC80,[22],17.2 µg/mL
same,MPI,[22],100
same,IC50,[23],0.729 µg/mL
same,IC80,[23],3.49 µg/mL
same,MPI,[23],100
same,IC50,[24],6.68 µg/mL
same,IC80,[24],25.6 µg/mL
same,MPI,[24],100
same,IC50,[25],10.8 µg/mL
same,IC80,[25],27.1 µg/mL
same,MPI,[25],100
same,IC50,[26],5.25 µg/mL
same,IC80,[26],24 µg/mL
same,MPI,[26],100
same,IC50,[27],9.03 µg/mL
same,IC80,[27],20.8 µg/mL
same,MPI,[27],100
N49P18.1 (antibody),IC50,[18],1.88 µg/mL
same,IC80,[18],6.81 µg/mL
same,MPI,[18],100
same,IC50,[19],4.27 µg/mL
same,IC80,[19],15.5 µg/mL
same,MPI,[19],98
same,IC50,[20],4.15 µg/mL
same,IC80,[20],11.6 µg/mL
same,MPI,[20],98
same,IC50,[21],11 µg/mL
same,IC80,[21],37.6 µg/mL
same,MPI,[21],87
same,IC50,[22],2.06 µg/mL
same,IC80,[22],11.4 µg/mL
same,MPI,[22],100
same,IC50,[23],14.1 µg/mL
same,IC80,[23],43.4 µg/mL
same,MPI,[23],84
same,IC50,[24],39.7 µg/mL
same,IC80,[24],> 50 µg/mL
same,MPI,[24],56
same,IC50,[25],4.08 µg/mL
same,IC80,[25],30.1 µg/mL
same,MPI,[25],89
same,IC50,[26],5.14 µg/mL
same,IC80,[26],33.1 µg/mL
same,MPI,[26],88
same,IC50,[27],16.1 µg/mL
same,IC80,[27],49.1 µg/mL
same,MPI,[27],83
VRC07 (antibody),IC50 (Titer in TZM.bl cells),[28],0.054 µg/mL
same,IC80 (Titer in TZM.bl cells),[28],0.479 µg/mL
same,IC50 (Titer in TZM.bl cells),[29],0.11 µg/mL
same,IC80 (Titer in TZM.bl cells),[29],0.353 µg/mL
same,IC50 (Titer in TZM.bl cells),[30],0.018 µg/mL
same,IC80 (Titer in TZM.bl cells),[30],0.058 µg/mL
same,IC50 (Titer in TZM.bl cells),[31],1.06 µg/mL
same,IC80 (Titer in TZM.bl cells),[31],10 µg/mL
same,IC50 (Titer in TZM.bl cells),[32],> 50 µg/mL
same,IC80 (Titer in TZM.bl cells),[32],> 50 µg/mL
same,IC50 (Titer in TZM.bl cells),[33],0.238 µg/mL
same,IC80 (Titer in TZM.bl cells),[33],1.4 µg/mL
same,IC50 (Titer in TZM.bl cells),[34],0.138 µg/mL
same,IC80 (Titer in TZM.bl cells),[34],0.524 µg/mL
same,IC50 (Titer in TZM.bl cells),[35],> 50 µg/mL
same,IC80 (Titer in TZM.bl cells),[35],> 50 µg/mL
same,IC50 (Titer in TZM.bl cells),[36],> 50 µg/mL
same,IC80 (Titer in TZM.bl cells),[36],> 50 µg/mL
same,IC50 (Titer in TZM.bl cells),[37],> 50 µg/mL
same,IC80 (Titer in TZM.bl cells),[37],> 50 µg/mL
same,IC50 (Titer in TZM.bl cells),[38],0.806 µg/mL
same,IC80 (Titer in TZM.bl cells),[38],2.9 µg/mL
